# T1: MCL-1 (Mus musculus, UniProt P97287)
# T1 chain: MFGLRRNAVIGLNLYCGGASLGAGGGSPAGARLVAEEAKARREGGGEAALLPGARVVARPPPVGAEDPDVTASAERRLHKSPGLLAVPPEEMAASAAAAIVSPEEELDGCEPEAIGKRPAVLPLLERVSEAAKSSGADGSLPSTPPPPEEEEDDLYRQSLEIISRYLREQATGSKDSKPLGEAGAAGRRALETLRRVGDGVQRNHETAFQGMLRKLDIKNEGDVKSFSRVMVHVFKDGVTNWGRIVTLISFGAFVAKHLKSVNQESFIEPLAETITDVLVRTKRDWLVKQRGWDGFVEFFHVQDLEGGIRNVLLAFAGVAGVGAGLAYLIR
# Biological target: T1, MCL-1
# Assay: surface plasmon resonance
row,Binder,Kd [µM]
1,EDIIRNIARHLAQVGDSMDRSI [BID BH3 peptide],0.134
2,GRLAEVCTVLLRLGDELEQIRPSVY [BOK BH3 peptide BH3],3.44
